Measurements published in patent US20110097300A1 (SUNNYBROOK HEALTH SCIENCES CENTRE, published 2011).
Where no end group is shown, it is not given here. Maleimide‑PEO2‑Biotin = EZ-link-PEO-maleimide-biotin, biotinylated PEG-maleimide moiety (29 angstrom)

Molecular target: T1, Tie 2 of EaHy926 endothelial cells (UniProt Q02763 23-1124, limits assumed)
T1 construct: whole, on cells; also called Tek
Assay: avidin agarose pull down from EaHy926 whole cell lysate, anti-Tie 2 immunoblot
Procedure: In this example, the ability of Vasculotide to bind the Tie 2 receptor, despite the engineered modifications, was tested using an in vitro pull down assay. In the pull down assay, a cell lysate of EaHy926 endothelial cells (which express high levels of Tie 2) was prepared in Phospho Lipase Cγ lysis buffer (50 mM Hepes buffer pH 7.5, 150 mM NaCl, 10% glycerol, 1% Triton X-100, 1.5 mM MgCl₂, 1.0 mM EGTA, 10 mM NaPPi, […], 2 mM Na₃VO₄, 1× aprotinin, 1× leupeptin and 1× PMSF). The whole cell lysate was mixed with either unclustered biotinylated Vasculotide or biotinylated irrelevant peptide. The biotinylated peptides then were isolated with avidin agarose and subsequently tested for their ability to precipitate Tie 2 via standard immunoblot analysis using anti-Tie 2 antibody.

T1 sequence (Q02763 23-1124 limits assumed): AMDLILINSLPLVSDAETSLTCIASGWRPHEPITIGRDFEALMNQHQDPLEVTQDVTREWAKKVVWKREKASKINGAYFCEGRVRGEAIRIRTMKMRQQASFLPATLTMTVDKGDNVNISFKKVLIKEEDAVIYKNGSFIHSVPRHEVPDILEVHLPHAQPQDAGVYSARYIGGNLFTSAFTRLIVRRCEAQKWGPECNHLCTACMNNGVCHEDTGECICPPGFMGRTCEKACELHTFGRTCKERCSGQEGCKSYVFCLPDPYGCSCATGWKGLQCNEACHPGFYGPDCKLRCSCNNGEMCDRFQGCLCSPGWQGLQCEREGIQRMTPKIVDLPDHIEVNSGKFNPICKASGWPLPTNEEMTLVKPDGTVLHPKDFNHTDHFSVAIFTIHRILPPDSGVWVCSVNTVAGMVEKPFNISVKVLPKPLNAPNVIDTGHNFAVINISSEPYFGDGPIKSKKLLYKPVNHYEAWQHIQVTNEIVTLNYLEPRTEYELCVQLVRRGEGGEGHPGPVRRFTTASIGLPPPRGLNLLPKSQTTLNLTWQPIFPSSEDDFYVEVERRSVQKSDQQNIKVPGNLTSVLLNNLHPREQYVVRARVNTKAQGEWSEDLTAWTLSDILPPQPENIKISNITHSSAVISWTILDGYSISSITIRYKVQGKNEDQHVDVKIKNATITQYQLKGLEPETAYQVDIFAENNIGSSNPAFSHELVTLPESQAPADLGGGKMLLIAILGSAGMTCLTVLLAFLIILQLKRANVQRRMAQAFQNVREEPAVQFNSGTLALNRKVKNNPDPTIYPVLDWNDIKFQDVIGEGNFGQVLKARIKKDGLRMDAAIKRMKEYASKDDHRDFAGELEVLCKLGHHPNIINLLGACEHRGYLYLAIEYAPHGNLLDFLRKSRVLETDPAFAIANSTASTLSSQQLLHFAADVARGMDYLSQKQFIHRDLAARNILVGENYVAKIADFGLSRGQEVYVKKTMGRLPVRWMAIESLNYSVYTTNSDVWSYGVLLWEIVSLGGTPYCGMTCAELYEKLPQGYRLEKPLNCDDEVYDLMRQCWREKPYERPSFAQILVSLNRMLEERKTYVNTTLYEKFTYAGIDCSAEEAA

B1: unclustered Vasculotide (biotinylated T7 peptide-PEG monomer) (peptide)
peptide: C(Maleimide‑PEO2‑Biotin)HHHRHSF-OH
notes: L-amino acids; monomer, not clustered with avidin; also called T7-biotin; non-clustered Vasculotide
B1: binds.
